Source: the supplement of paper PMC9112550, “Optimization of the antimicrobial peptide Bac7 by deep mutational scanning” (BMC Biology, 2022)

Tested on: Escherichia coli TOP10
Test: shrunken log2 fold change of peptide-encoding DNA abundance (4.5 h post-induction vs induction); higher = less antimicrobial activity (less host growth inhibition)
Conditions: time post-induction: 4.5 h; library: site-saturation at positions 5, 18, 19, 20
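Further: peptides expressed intracellularly from a pBAD plasmid library in pooled LB shake-flask culture, induced with 0.3% L-arabinose, DNA abundance read by NGS, three biological replicates, DESeq2 with apeglm shrinkage.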

Sequence	shrunken log2 fold change
RRIRQRPPRLPRPRPRPRSAPRP	0.319
RRIRQRPPRLPRPRPRPRSEPRP	0.234
RRIRQRPPRLPRPRPRPRSFPRP	-0.0281
RRIRQRPPRLPRPRPRPRSQPRP	0.0421
RRIRQRPPRLPRPRPRPRVSPRP	-0.0909
RRIRQRPPRLPRPRPRPRWTPRP	0.25
RRIRQRPPRLPRPRPRPRWVPRP	0.345
RRIRQRPPRLPRPRPRPRYCPRP	-0.143
RRIRQRPPRLPRPRPRPSAEPRP	0.117
RRIRQRPPRLPRPRPRPSEAPRP	0.17
RRIRQRPPRLPRPRPRPSETPRP	-0.216
RRIRQRPPRLPRPRPRPSFDPRP	0.182
RRIRQRPPRLPRPRPRPSFFPRP	-0.287
RRIRQRPPRLPRPRPRPSFMPRP	-0.509
RRIRQRPPRLPRPRPRPSGMPRP	-0.143
RRIRQRPPRLPRPRPRPSISPRP	-0.22
RRIRQRPPRLPRPRPRPSITPRP	-0.731
RRIRQRPPRLPRPRPRPSKLPRP	-0.401
RRIRQRPPRLPRPRPRPSLQPRP	-0.154
RRIRQRPPRLPRPRPRPSMAPRP	-0.135
RRIRQRPPRLPRPRPRPSNKPRP	-0.513
RRIRQRPPRLPRPRPRPSNMPRP	-0.459
RRIRQRPPRLPRPRPRPSNVPRP	-0.0428
RRIRQRPPRLPRPRPRPSQAPRP	0.103
RRIRQRPPRLPRPRPRPSQFPRP	0.00374

Sequence	shrunken log2 fold change
RRIRQRPPRLPRPRPRPSVEPRP	0.218
RRIRQRPPRLPRPRPRPSWSPRP	-0.185
RRIRQRPPRLPRPRPRPTFHPRP	0.199
RRIRQRPPRLPRPRPRPTFMPRP	-0.552
RRIRQRPPRLPRPRPRPTGFPRP	0.051
RRIRQRPPRLPRPRPRPTGMPRP	0.475
RRIRQRPPRLPRPRPRPTIHPRP	-0.32
RRIRQRPPRLPRPRPRPTIWPRP	-0.0969
RRIRQRPPRLPRPRPRPTKMPRP	-0.239
RRIRQRPPRLPRPRPRPTLCPRP	0.00185
RRIRQRPPRLPRPRPRPTLIPRP	-0.131
RRIRQRPPRLPRPRPRPTLKPRP	-0.0628
RRIRQRPPRLPRPRPRPTLQPRP	0.276
RRIRQRPPRLPRPRPRPTMAPRP	0.216
RRIRQRPPRLPRPRPRPTNEPRP	-0.395
RRIRQRPPRLPRPRPRPTNFPRP	-0.159
RRIRQRPPRLPRPRPRPTNQPRP	0.0625
RRIRQRPPRLPRPRPRPTNWPRP	0.146
RRIRQRPPRLPRPRPRPTPCPRP	-0.138
RRIRQRPPRLPRPRPRPTPKPRP	1.53
RRIRQRPPRLPRPRPRPTQNPRP	0.627
RRIRQRPPRLPRPRPRPTSQPRP	-0.0461
RRIRQRPPRLPRPRPRPTSRPRP	-0.0729
RRIRQRPPRLPRPRPRPTVKPRP	-0.096
RRIRQRPPRLPRPRPRPTVMPRP	0.0964

Sequence	shrunken log2 fold change
RRIRQRPPRLPRPRPRPTVWPRP	0.339
RRIRQRPPRLPRPRPRPTYWPRP	-0.247
RRIRQRPPRLPRPRPRPVANPRP	0.124
RRIRQRPPRLPRPRPRPVARPRP	0.0118
RRIRQRPPRLPRPRPRPVCKPRP	0.0434
RRIRQRPPRLPRPRPRPVDAPRP	-0.0176
RRIRQRPPRLPRPRPRPVEQPRP	0.0359
RRIRQRPPRLPRPRPRPVETPRP	-0.00674
RRIRQRPPRLPRPRPRPVFWPRP	0.113
RRIRQRPPRLPRPRPRPVGEPRP	0.443
RRIRQRPPRLPRPRPRPVGHPRP	-0.0132
RRIRQRPPRLPRPRPRPVHVPRP	-0.0167
RRIRQRPPRLPRPRPRPVIEPRP	0.162
RRIRQRPPRLPRPRPRPVINPRP	-0.102
RRIRQRPPRLPRPRPRPVIWPRP	0.124
RRIRQRPPRLPRPRPRPVKAPRP	0.198
RRIRQRPPRLPRPRPRPVKLPRP	-0.0467
RRIRQRPPRLPRPRPRPVKVPRP	-0.00987
RRIRQRPPRLPRPRPRPVLQPRP	-0.107
RRIRQRPPRLPRPRPRPVLVPRP	0.328
RRIRQRPPRLPRPRPRPVMMPRP	-0.335
RRIRQRPPRLPRPRPRPVNYPRP	-0.00127
RRIRQRPPRLPRPRPRPVPFPRP	-0.374
RRIRQRPPRLPRPRPRPVPSPRP	-0.0282
RRIRQRPPRLPRPRPRPVQKPRP	0.25

Sequence	shrunken log2 fold change
RRIRQRPPRLPRPRPRPVQNPRP	0.0137
RRIRQRPPRLPRPRPRPVTMPRP	-0.0817
RRIRQRPPRLPRPRPRPVTNPRP	0.0368
RRIRQRPPRLPRPRPRPVVHPRP	-0.164
RRIRQRPPRLPRPRPRPVWCPRP	0.0608
RRIRQRPPRLPRPRPRPVYAPRP	0.16
RRIRQRPPRLPRPRPRPWAYPRP	-0.11
RRIRQRPPRLPRPRPRPWCVPRP	-0.115
RRIRQRPPRLPRPRPRPWEAPRP	-0.00204
RRIRQRPPRLPRPRPRPWFAPRP	-0.16
RRIRQRPPRLPRPRPRPWFWPRP	0.00186
RRIRQRPPRLPRPRPRPWGCPRP	-0.122
RRIRQRPPRLPRPRPRPWHEPRP	-0.00567
RRIRQRPPRLPRPRPRPWIRPRP	-0.166
RRIRQRPPRLPRPRPRPWPKPRP	0.097
RRIRQRPPRLPRPRPRPWPVPRP	0.103
RRIRQRPPRLPRPRPRPWPYPRP	0.0155
RRIRQRPPRLPRPRPRPWRKPRP	-0.0153
RRIRQRPPRLPRPRPRPWRMPRP	-0.421
RRIRQRPPRLPRPRPRPWRYPRP	0.0785
RRIRQRPPRLPRPRPRPWVMPRP	-0.0363
RRIRQRPPRLPRPRPRPWVPPRP	-0.152
RRIRQRPPRLPRPRPRPWWLPRP	0.27
RRIRQRPPRLPRPRPRPYAHPRP	-0.249
RRIRQRPPRLPRPRPRPYAWPRP	-0.0963

Sequence	shrunken log2 fold change
RRIRQRPPRLPRPRPRPYCQPRP	-0.0564
RRIRQRPPRLPRPRPRPYDFPRP	-0.543
RRIRQRPPRLPRPRPRPYDKPRP	-0.119
RRIRQRPPRLPRPRPRPYDMPRP	-0.626
RRIRQRPPRLPRPRPRPYELPRP	-0.695
RRIRQRPPRLPRPRPRPYFIPRP	-1.23
RRIRQRPPRLPRPRPRPYFNPRP	-0.82
RRIRQRPPRLPRPRPRPYGNPRP	-0.0235
RRIRQRPPRLPRPRPRPYHNPRP	-0.945
RRIRQRPPRLPRPRPRPYLIPRP	-0.89
RRIRQRPPRLPRPRPRPYMAPRP	-0.274
RRIRQRPPRLPRPRPRPYMYPRP	-0.0364
RRIRQRPPRLPRPRPRPYNGPRP	-0.631
RRIRQRPPRLPRPRPRPYNQPRP	-0.536
RRIRQRPPRLPRPRPRPYNRPRP	-0.0882
RRIRQRPPRLPRPRPRPYPKPRP	0.00727
RRIRQRPPRLPRPRPRPYPSPRP	-0.161
RRIRQRPPRLPRPRPRPYRIPRP	-0.111
RRIRQRPPRLPRPRPRPYRVPRP	-0.00926
RRIRQRPPRLPRPRPRPYSSPRP	-0.751
RRIRQRPPRLPRPRPRPYWYPRP	-0.0759
RRIRQRPPRLPRPRPRPYYAPRP	-0.898
RRIRRRPPRLPRPRPRPACEPRP	0.192
RRIRRRPPRLPRPRPRPACKPRP	0.163
RRIRRRPPRLPRPRPRPADLPRP	-0.141

Sequence	shrunken log2 fold change
RRIRRRPPRLPRPRPRPAFRPRP	0.311
RRIRRRPPRLPRPRPRPAGDPRP	0.563
RRIRRRPPRLPRPRPRPAGNPRP	-0.0218
RRIRRRPPRLPRPRPRPAHTPRP	0.448
RRIRRRPPRLPRPRPRPAIHPRP	0.131
RRIRRRPPRLPRPRPRPAIMPRP	0.275
RRIRRRPPRLPRPRPRPAKDPRP	0.185
RRIRRRPPRLPRPRPRPAKRPRP	0.863
RRIRRRPPRLPRPRPRPAKTPRP	0.408
RRIRRRPPRLPRPRPRPALGPRP	0.269
RRIRRRPPRLPRPRPRPAMIPRP	0.0243
RRIRRRPPRLPRPRPRPAMLPRP	1.02
RRIRRRPPRLPRPRPRPANYPRP	-0.049
RRIRRRPPRLPRPRPRPAPRPRP	0.996
RRIRRRPPRLPRPRPRPARAPRP	0.523
RRIRRRPPRLPRPRPRPARIPRP	0.0165
RRIRRRPPRLPRPRPRPASCPRP	0.0969
RRIRRRPPRLPRPRPRPASHPRP	0.4
RRIRRRPPRLPRPRPRPAVWPRP	0.399
RRIRRRPPRLPRPRPRPAWAPRP	0.791
RRIRRRPPRLPRPRPRPAWDPRP	0.324
RRIRRRPPRLPRPRPRPCADPRP	0.0637
RRIRRRPPRLPRPRPRPCAHPRP	0.067
RRIRRRPPRLPRPRPRPCAQPRP	-0.0794
RRIRRRPPRLPRPRPRPCAYPRP	0.0425
